Consider 21 sequences from the DeepSol protein solubility set.

The data set in a line: soluble on expression in E. coli; label from the status in PepcDB or PDB records.
As for “SVGTSCIPGMAIPHNPLDSCRWYVSTRTCGVGPRLATQEMKARCCRQLEAIPAYCRCEAVRILMDGVVTSSGQHEGRLLQDLPGCPRQVQRAFAPKLVTEVECNLATIHGGPFCLSLLGAGE”, the “soluble on expression in E. coli” value was “soluble”.

On to “MHVLDLFKIEGKTAIVTGGGRGLGEQIAVGLAEAGANVVVCSRKVEACEQVKEKLEQLGVRSLALRCDVTNPEEVKHVVETTVKEFGGIDILVNNSGATWGAPVEEMPLEAWQKVINVNVTGTFLMSQAVGKVMIAKQTGGSIINIASVAGLGGTHPDILNTIGYNTSKGAVITFTRDLAAKWGKHGIRVNAVAPGFFPTKMSKVVLERVGKKVLEHTPLGRFGGEDDLKGAVLFLASPASAFVTGALLVVDGGSHATGI”, for which the “soluble on expression in E. coli” value is “soluble”.

As for “SKLVWSPETASKAYIDTVKSCENLETPDAAELIAAMAAGWNVKLIVETWSEGDAIASSIGLNVASKHANAKHICIVQNSRSESAYLQAIQESSSPLNFPETIVAEEPGKAMKKLQGVDFLVVDWRNKEFAAAALKNAAFGNRGAVVVCRNGYSSLRRVLRDRKVVRTVTLPVTGGIEIAHVAARNSGKSGNNKRRWITHVDQRSGEEHVFSI”, the “soluble on expression in E. coli” value is given as “soluble”.

Turning to “MGSDKIHHHHHHMSTLDIAEDNKIKNEEFKIWKKSIPSLYQHISSLKPIFGSGVDESPSTLRSIVFTNDSSCNKSKGVLSVPLLYSQGSEIFEVDCIVPLGLHYKKPESISEPLVQPDYTMESQKVEQTVLIPKWEFKGETIAKMIYVDNSEINVKVIALSTNGSLAWFREGVKSPVYTMMEPSTSLSSASSGNQNKPCVDFAISNDSKTLTVTKEKHLDNENATIKLIDNSGKIGEVLRTIPVPGIKNIQEIKFLNNQIFATCSDDGIIRFWGNEIGKKPLWILNDSLDGKTTCFAASPFVDTLFMTGTSGGALKVWDIRAVIALGDADAELNINQGHNKVNELFKVHHFYSEQVSKIEFSSISPMEVVTIGGLGNVYHWNFEPVFAIYNEIHEDFQGIISDELEAESMAFYHTEGCRREIGENNKVNTVAYHKYIEDLVATVDSDGLLTVYKPFTGKVLDGSREVGAAKS”, the “soluble on expression in E. coli” value is “not soluble”.

Regarding “MSEVIDLASPIEAHGETLSQVTFRRPTAQEARAIKALPYKIDKNEDVSLDLDVAAKYIAVCAGIPPSSVNQMDLCDINTLSWKVASFFMAAASATLKD”, the “soluble on expression in E. coli” value is recorded as “soluble”.

Take “MSLTNLHYTVKSLMRFKDKTVIISGGGNSAIDWANELEPIAKKVYLTYRKEALNGHEAQISQLLSSSATCLFHTTISKLIARDNKEVIEQVELTDHQTGEVTNLAVDEVIINHGYERDKSLLDQSEVTLDRIDDYYIAGTPTSATSVGGIYAAGDVLKHEGKLHLIAGAFQDAANAVNQAKQWIEPEAHQSAMVSSHNHVFKERNRELIRQMLKEGHHHHHH”: the “soluble on expression in E. coli” value is “not soluble”.

With “LKELHILTRDGKINQDTRRKLKQVYHLYQFIEPLMADVLEKKGAMTLADHGAGKSYLGFILYDLFLKEKAAGHVYGVETRQELVDKSRELAERLGFERMGFLNLTVEQSITSTALPEQVDIITALHACNTATDDAIRFALAKDAQYIVLVPCCQAEVASVLRQKKNETFGKTPLSELWRHPIHTRE”, the “soluble on expression in E. coli” value is “not soluble”.

As to “MGSDKIHHHHHHMDYELLKTFICLAKLKNFTKTAEQLHVVQSTITSRIKHLEHTIGETLFIRTNKKVLLTGAGEIFLPYAKQLLSIQETAISRLHTLELFKDTLNIGAVHSIYDCHVQNMILKYMQRNKKIAIKITIEHSEELIQMLHDNQLDVTFTYLDIKSSQFICNPFYTDKIILVTGSQNNYNERGITNDELRSLPLLSSAILTEEFQEWFYSIFPRNYIYPLDININSNIVTFLKDGIGFSFMPESAAKNFIEEGSLIEVKLLESTPPSMKSYVLLNKQRINSEAVHSWLNEFPTLTST”, the “soluble on expression in E. coli” value was “not soluble”.

“MNIVITGGTGLIGRHLIPRLLELGHQITVVTRNPQKASSVLGPRVTLWQGLADQSNLNGVDAVINLAGEPIADKRWTHKQKERLCQSRWNITQKLVDLINASDTPPSVLISGSATGYYGDLGEVVVTEEEPPHNEFTHKLCARWEEIACRAQSDKTRVCLLRTGVVLAPDGGILGKMLPPFRLGLGGPIGSGRQYLAWIHIDDMVNGILWLLDNELRGPFNMVSPYPVRNEQFAHALGHALHRPAILRVPTTAIRLLMGESSVLVLGGQRALPKRLEEAGFAFRWYDLEEALADVVR”: the “soluble on expression in E. coli” value is “not soluble”.

With “MTSIGTGYDLSNSVFSPDGRNFQVEYAVKAVENGTTSIGIKCNDGVVFAVEKLITSKLLVPQKNVKIQVVDRHIGCVYSGLIPDGRHLVNRGREEAASFKKLYKTPIPIPAFADRLGQYVQAHTLYNSVRPFGVSTIFGGVDKNGAHLYMLEPSGSYWGYKGAATGKGRQSAKAELEKLVDHHPEGLSAREAVKQAAKIIYLAHEDNKEKDFELEISWCSLSETNGLHKFVKGDLLQEAIDFAQKEINGDDDEDEDDSDNVMSSDDENAPVATNANATTDQEGDIHLE”, the “soluble on expression in E. coli” value is recorded as “soluble”.

Consider “MADSTITIRGYVRDNGCSVAAESTNFTVDLMENAAKQFNNIGATTPVVPFRILLSPCGNAVSAVKVGFTGVADSHNANLLALENTVSAASGLGIQLLNEQQNQIPLNAPSSALSWTTLTPGKPNTLNFYARLMATQVPVTAGHINATATFTLEYQDNHHHHHHKQADSTITIRGYVRDN”, for which the “soluble on expression in E. coli” value is given as “soluble”.

Turning to “MAHHHHHHMKEYTGNRSVPTTIQNKKKSITEEINKSLHTQDSKNNQNNYEICLSDVSVSTISNSSGIDSDLYEEVIKKIKKEKKRKRKESKRDIYKEKVKYDKKESNSNDENKNDRGNEKDRKNNSDIENNSDSEYINDKEKDRKKRKHIDIDKKKRNKESHHHVNKKKDKNISTRKKRKYTSSLSSESYERRKDKKKKKEKYRNSESSYKSMVDENIPKDPFNPLLLAYEKKEKKKYRKNDEHNDLNDRWKHDRYENTSDDEDINIEKAYENSKPYFDPHEFPKILWKSKAGGVCVPQISDDKK”, the “soluble on expression in E. coli” value was “not soluble”.

Consider “MYILVENAVTSKQLVTGVRTEPHYRYAGYYLKAYEIVANQERDKTKYESLEPAIKALFTLDSEHEKKVRTQLENLKLLTKFKFTGIYTESVDRYNKAVVLQDKGKTEDAETATTNAQT”, for which the “soluble on expression in E. coli” value is reported as “not soluble”.

On to “MTKPIIGITANQRLNMALDNLPWSYAPTGFVQAVTQSGGLPLLLPIGDEAAAKTYVSMVDKIILIGGQNVDPKYYQEEKAAFDDDFSPERDTFELAIIKEAITLKKPILGICRGTQLMNVALGGNLNQHIDSHWQEAPSDFLSHEMIIEPDSILYPIYGHKTLINSFHRQSLKTVAKDLKVIARDPRDGTIEAVISTNDAIPFLGVQWHPELLQGVRDEDLQLFRLFVNDF”, for which the “soluble on expression in E. coli” value is given as “not soluble”.

For the sequence “MSLLNENDIEQLTLQRLQSLGWEYRYGKDLPVHEGKFARGDLSGVVFVEQLREAVRKLNPQLPESAVDSVVKSATKSDIGDLVVRNQTFYKLLRDGVRVEYTQNGEQKIEMVRLVDFEHWGNNRFVAVNQLEIRSRKGGKRIPDIIGFVNGLPLVVFELKNPLRESADLLQAFNQFETYKDEIAELFVYNQALIISDGIVARLGSLSADFQRFTPWKVVDEKNKSARLYFDDELQSLLNGLMQPEDLLDYIRYFVLFERDSVGKTIKKIAAYHQYYGVNEAVDSTIWATSEKGDRRIGVMWHTQGSGKSISMLFYAGKLLAQPELKNPTIVVVTDRNDLDGQLFQTFSSGKDLIKQTPQQVEDRDQLRQLLAQNEVGGVFFTTIQKFALNEEESRFPILNERNNIIVISDEAHRSQYGFTQKLHNGKFQTGYARHLRDALPNASFIGFTGTPISLEDKDTQDVFGRYVSIYDLQDAVEDGATVPIVYDDARQIRLNKKDHDALFAEIDALLEEEPSTSLRLREKLLGSQERLIELAADFVQHFAKRNEVVDSKAMMVVSSRQICVDLYNQIIALHPEWHSDNINEGAIKIVMTGSASDTPEMQKHIYSKQEKQTLERRFKDPNDPLKVVIVRDMWLTGFDAPCCNTMYLDKPMKGHNLMQAIARVNRVFANKSRENGGLIVDYVGLAKELRAATQQYTNSTGKGQLAEDVQSVFFKMKEQLEFIRTLFATPIEGKTFDVQAALEKDNPNDLLMAIRFAANHILSLDQLSFDGKAHEQHWFNKKETEPRKKAFLKTAGLVKKGYMLCGTLAEVEPYNQEIAFYDAVRAILTKREQKGTGTNERQILLKKLVNQTVYSEGVIDLFDLLEKPQPQISLLSEEFLQTVKNSPTKNLWVSAMERYLASEIKVKSGTNLTLQKDFERRLKEALNQYHNHNLTVVEILDELFKMSQDFQERLALGKKLGLTKEELAFYEALSQNQSAKDLMGDEVLSKLAKEITETLRKSVTIDWQYKEAVRARIRLLVRRALQKYKYPPDKQEEAVTYVIKQAEEIAEDLTGLEGHHHHHH”, the “soluble on expression in E. coli” value is on record as “soluble”.

“MLMEPQFLRLVSHGANVLDPLSRIEPAAVGMMAGALQKGLAETFTPEAMQDPPRVGLAGFFKQLSDPEVQKALGVLFLFLKALGKAFGHMNEERKTLEAMMAKMMPKK”: the “soluble on expression in E. coli” value was “soluble”.

For “MSLHLYTKHIYFIGGKGGVGKSTSAASFAWRCAERGEKTLLISTDPAHNLGDLFHTEIGAKHKKITDNLFATEIDPEQETRRYIQSVKDNLRGMVKSTMLDEVNRQIDAAAATPGADEAAMFNAISSIVLDEQGTYDKLVFDTAPTGHTIRLLTLPEMMGVWIDGMVKKRKKINENYSNLLNDGEPVDDPIYDTLQQRKERFAAVRNVLLDPKKTGFMFVLIPERLPILETEKAVKLLAKHDLHVETLIINKILPDVADGQFLEKRRQIEQRYLQQIHNTFRKQTLLRVPLFPEDIGSIEALYHFARYLEPTAEGHHHHHH”, the “soluble on expression in E. coli” value is recorded as “soluble”.

“MAHHHHHHMLWAIKHTDYPTMSTGLETLDLFLENVSKSEYAEVFFKAYMQRILVDVMVASMDSLHASGFQHHVRILQKLFNVSSMVPPDTPTIGKDVIRAYLLDSLTVIPTLTTTSILSFVDTCYESFTDDERFRTQFADFLIEVKVWGAEQENKMQEEDERRLREETIPGFSNLSMEIRRQTCSPPSDPGRCADGQGRGPASVRRFHCRRHRHPSKYTCTPLSLFPLKNPSADPAVRDVRPSYFVDCVGG”: the “soluble on expression in E. coli” value is recorded as “not soluble”.

Turning to “MFSIDDVAKQAQSLAGKGYETPKSNLPSVFRDMKYADYQQIQFNHDKAYWNNLKTPFKLEFYHQGMYFDTPVKINEVTATAVKRIKYSPDYFTFGDVQHDKDTVKDLGFAGFKVLYPINSKDKNDEIVSMLGASYFRVIGAGQVYGLSARGLAIDTALPSGEEFPRFKEFWIERPKPTDKRLTIYALLDSPRATGAYKFVVMPGRDTVVDVQSKIYLRDKVGKLGVAPLTSMFLFGPNQPSPANNYRPELHDSNGLSIHAGNGEWIWRPLNNPKHLAVSSFSMENPQGFGLLQRGRDFSRFEDLDDRYDLRPSAWVTPKGEWGKGSVELVEIPTNDETNDNIVAYWTPDQLPEPGKEMNFKYTITFSRDEDKLHAPDNAWVQQTRRSTGDVKQSNLIRQPDGTIAFVVDFTGAEMKKLPEDTPVTAQTSIGDNGEIVESTVRYNPVTKGWRLVMRVKVKDAKKTTEMRAALVNADQTLSETWSYQLPANEVEHHHHHH”, the “soluble on expression in E. coli” value is “soluble”.

Take “MEAPTVLDVGCGDGARTLANLPPRSVGLDFSRAGLDLAAETVPDSRLVQGDMGSLPVTTDSVDAITAYHAVFHVQRDQHPEVYREFARVLRPGGTVLMTLPSGQFETVRRGWMGGSMFFSAPGRRATLDQLADAGFTETETVTATDPLGSDSEFVFATLADALEHHHHHH”: the “soluble on expression in E. coli” value is “not soluble”.

As for “EFELKDFHVDYSISHPQSQHIQIIVCFKAQDKHEANAGRYRRIKPAWCTTEDGEHVIYYRISASRVDHDITTKYAFLDRDGKPKQIHHSEKLAVELMTLHPVIRLRDSRRFPRPSHINGDSKNARIEKRINNTCRRLLAMPGHVNKGEIRSSLDAMKTLVEHYFAFRSIGKGNPRKPRDGLFYTSPSSDKGLSQYLKETNDKQSRLLLMGLLSAYLQAKGPTDLRRCARPILIIEDPEGRLHPTHLARAWSLLQLLPMQK”, the “soluble on expression in E. coli” value is recorded as “not soluble”.
